Assay results: patent US20250215103A1 (Hoffmann-La Roche, published 2025)
Residue numbers refer to the chain shown, from its start.

B1: bispecific 2+1 CrossMab 8156 (PD1-0103-0312/TfR(51A165) BBB-format) (bispecific antibody, human IgG1, kappa, L234A L235A)
light 1: EVQLLESGGGLVQPGGSLRLSCAASGFSFSSYTMSWVRQAPGKGLEWVATISGGGRDIYYPDSVKGRFTISRDNSKNTLYLQMNSLRAEDTAVYYCVLLTGRVYFALDSWGQGTLVTVSSASVAAPSVFIFPPSDEQLKSGTASVVCLLNNFYPREAKVQWKVDNALQSGNSQESVTEQDSKDSTYSLSSTLTLSKADYEKHKVYACEVTHQGLSSPVTKSFNRGEC
light 2: QIVLTQSPAIMSASPGEKVTVTCSASSSIRYMHWYQQKPGTSPKRWIYDTSELASGVPARFSGSGSGTSYSLTINSMEAEDAATYYCHQRSSYPFTFGGGTKLEIKRTVAAPSVFIFPPSDRKLKSGTASVVCLLNNFYPREAKVQWKVDNALQSGNSQESVTEQDSKDSTYSLSSTLTLSKADYEKHKVYACEVTHQGLSSPVTKSFNRGEC
heavy 1: DIVMTQSPDSLAVSLGERATINCKASESVDTSDNSFIHWYQQKPGQSPKLLIYRSSTLESGVPDRFSGSGSGTDFTLTISSLQAEDVAVYYCQQNYDVPWTFGQGTKVEIKSSASTKGPSVFPLAPSSKSTSGGTAALGCLVKDYFPEPVTVSWNSGALTSGVHTFPAVLQSSGLYSLSSVVTVPSSSLGTQTYICNVNHKPSNTKVDKKVEPKSCDKTHTCPPCPAPEAAGGPSVFLFPPKPKDTLMISRTPEVTCVVVDVSHEDPEVKFNWYVDGVEVHNAKTKPREEQYNSTYRVVSVLTVLHQDWLNGKEYKCKVSNKALGAPIEKTISKAKGQPREPQVCTLPPSRDELTKNQVSLSCAVKGFYPSDIAVEWESNGQPENNYKTTPPVLDSDGSFFLVSKLTVDKSRWQQGNVFSCSVMHEALHNHYTQKSLSLSPGKGGGGSGGGGSEVQLQQSGPELVKPGASVKMSCKASGYTFTSYVMHWVKQKPGQGLEWIGYVNPYNDDTKYNEKFRGKATLTSDKSSSTAYMELSSLTSEDSAVYYCARSYYYYSMDNWGQGTSVTVSSASTKGPSVFPLAPSSKSTSGGTAALGCLVEDYFPEPVTVSWNSGALTSGVHTFPAVLQSSGLYSLSSVVTVPSSSLGTQTYICNVNHKPSNTKVDEKVEPKSCD
heavy 2: not shown
B2: TfR/Nada/anti-Biotin control antibody 9903 (bispecific antibody, human IgG1, kappa, L234A L235A)
heavy 1: not shown
light 1: B1 light 2 with R122E, K123Q
heavy 2: EVQLVESGGGLVQPGGSLRLSCAASGFSIAGTAIHWVRQAPGKGLEWVASISPGGGSTAYADSVKGRFTISADTSKNTAYLQMNSLRAEDTAVYYCSRSGGSGASAMDYWGQGTLVTVSSASVAAPSVFIFPPSDEQLKSGTASVVCLLNNFYPREAKVQWKVDNALQSGNSQESVTEQDSKDSTYSLSSTLTLSKADYEKHKVYACEVTHQGLSSPVTKSFNRGECDKTHTCPPCPAPEAAGGPSVFLFPPKPKDTLMISRTPEVTCVVVDVSHEDPEVKFNWYVDGVEVHNAKTKPREEQYNSTYRVVSVLTVLHQDWLNGKEYKCKVSNKALGAPIEKTISKAKGQPREPQVCTLPPSRDELTKNQVSLSCAVKGFYPSDIAVEWESNGQPENNYKTTPPVLDSDGSFFLVSKLTVDKSRWQQGNVFSCSVMHEALHNHYTQKSLSLSPGKGGGGSGGGGSDIQMTQSPSSLSASVGDRVTITCRASGNIHNYLSWYQQKPGKVPKLLIYSAKTLADGVPSRFSGSGSGTDFTLTISSLQPEDVATYYCQHFWSSIYTFGCGTKLEIKRGGGGSGGGGSGGGGSGGGGSQVQLVQSGAEVKKPGSSVKVSCKSSGFNNKDTFFQWVRQAPGQCLEWMGRIDPANGFTKYAQKFQGRVTITADTSTSTAYMELSSLRSEDTAVYYCARWDTYGAAWFAYWGQGTLVTVSS
light 2: DIQMTQSPSSLSASVGDRVTITCRASQDVGSGVAWYQQKPGKAPKLLIGSASGLYSGVPSRFSGSRSGTDFTLTISSLQPEDFATYYCQQSASGGSTFGQGTKVEIKSSASTKGPSVFPLAPSSKSTSGGTAALGCLVKDYFPEPVTVSWNSGALTSGVHTFPAVLQSSGLYSLSSVVTVPSSSLGTQTYICNVNHKPSNTKVDKKVEPKSC
notes: monovalent for TfR; also called αTfR/Nada; Nada/αTfR
B3: bispecific 2+1 CrossMab 8157 (PD1-0103-0312/TfR(51A165) TCB-format) (bispecific antibody, human IgG1, kappa, L234A L235A)
light 1: B1 light 1
light 2: B1 light 2
heavy 1: DIVMTQSPDSLAVSLGERATINCKASESVDTSDNSFIHWYQQKPGQSPKLLIYRSSTLESGVPDRFSGSGSGTDFTLTISSLQAEDVAVYYCQQNYDVPWTFGQGTKVEIKSSASTKGPSVFPLAPSSKSTSGGTAALGCLVKDYFPEPVTVSWNSGALTSGVHTFPAVLQSSGLYSLSSVVTVPSSSLGTQTYICNVNHKPSNTKVDKKVEPKSCDGGGGSGGGGSEVQLQQSGPELVKPGASVKMSCKASGYTFTSYVMHWVKQKPGQGLEWIGYVNPYNDDTKYNEKFRGKATLTSDKSSSTAYMELSSLTSEDSAVYYCARSYYYYSMDNWGQGTSVTVSSASTKGPSVFPLAPSSKSTSGGTAALGCLVEDYFPEPVTVSWNSGALTSGVHTFPAVLQSSGLYSLSSVVTVPSSSLGTQTYICNVNHKPSNTKVDEKVEPKSCDKTHTCPPCPAPEAAGGPSVFLFPPKPKDTLMISRTPEVTCVVVDVSHEDPEVKFNWYVDGVEVHNAKTKPREEQYNSTYRVVSVLTVLHQDWLNGKEYKCKVSNKALGAPIEKTISKAKGQPREPQVCTLPPSRDELTKNQVSLSCAVKGFYPSDIAVEWESNGQPENNYKTTPPVLDSDGSFFLVSKLTVDKSRWQQGNVFSCSVMHEALHNHYTQKSLSLSP
heavy 2: not shown
B4: bispecific CrossMab 8017 (Pembrolizumab/1026) (bispecific antibody, human IgG1, kappa, L234A L235A)
heavy 1: QSMQESGPGLVKPSQTLSLTCTVSGFSLSSYAMSWIRQHPGKGLEWIGYIWSGGSTDYASWAKSRVTISKTSTTVSLKLSSVTAADTAVYYCARRYGTSYPDYGDASGFDPWGQGTLVTVSSASTKGPSVFPLAPSSKSTSGGTAALGCLVEDYFPEPVTVSWNSGALTSGVHTFPAVLQSSGLYSLSSVVTVPSSSLGTQTYICNVNHKPSNTKVDEKVEPKSCDKTHTCPPCPAPEAAGGPSVFLFPPKPKDTLMISRTPEVTCVVVDVSHEDPEVKFNWYVDGVEVHNAKTKPREEQYNSTYRVVSVLTVLHQDWLNGKEYKCKVSNKALGAPIEKTISKAKGQPREPQVCTLPPSRDELTKNQVSLSCAVKGFYPSDIAVEWESNGQPENNYKTTPPVLDSDGSFFLVSKLTVDKSRWQQGNVFSCSVMHEALHNHYTQKSLSLSP
light 1: AIQLTQSPSSLSASVGDRVTITCRASQSISSYLAWYQQKPGKAPKLLIYRASTLASGVPSRFSGSGSGTDFTLTISSLQPEDFATYYCQQNYASSNVDNTFGGGTKVEIKRTVAAPSVFIFPPSDRKLKSGTASVVCLLNNFYPREAKVQWKVDNALQSGNSQESVTEQDSKDSTYSLSSTLTLSKADYEKHKVYACEVTHQGLSSPVTKSFNRGEC
heavy 2: not shown
light 2: QVQLVQSGVEVKKPGASVKVSCKASGYTFTNYYMYWVRQAPGQGLEWMGGINPSNGGTNFNEKFKNRVTLTTDSSTTTAYMELKSLQFDDTAVYYCARRDYRFDMGFDYWGQGTTVTVSSASVAAPSVFIFPPSDEQLKSGTASVVCLLNNFYPREAKVQWKVDNALQSGNSQESVTEQDSKDSTYSLSSTLTLSKADYEKHKVYACEVTHQGLSSPVTKSFNRGEC
B5: bispecific CrossMab 8018 (Pembrolizumab/51A165) (bispecific antibody, human IgG1, kappa, L234A L235A)
heavy 1: EVQLQQSGPELVKPGASVKMSCKASGYTFTSYVMHWVKQKPGQGLEWIGYVNPYNDDTKYNEKFRGKATLTSDKSSSTAYMELSSLTSEDSAVYYCARSYYYYSMDNWGQGTSVTVSSASTKGPSVFPLAPSSKSTSGGTAALGCLVEDYFPEPVTVSWNSGALTSGVHTFPAVLQSSGLYSLSSVVTVPSSSLGTQTYICNVNHKPSNTKVDEKVEPKSCDKTHTCPPCPAPEAAGGPSVFLFPPKPKDTLMISRTPEVTCVVVDVSHEDPEVKFNWYVDGVEVHNAKTKPREEQYNSTYRVVSVLTVLHQDWLNGKEYKCKVSNKALGAPIEKTISKAKGQPREPQVCTLPPSRDELTKNQVSLSCAVKGFYPSDIAVEWESNGQPENNYKTTPPVLDSDGSFFLVSKLTVDKSRWQQGNVFSCSVMHEALHNHYTQKSLSLSP
light 1: B1 light 2
heavy 2: not shown
light 2: B4 light 2

Assays:
[1] = biological target: T1, human PD1 on cells (Jurkat cells expressing human PD1; activated human T cells) (human, UniProt Q15116 25-288); test: cell-based or functional assay
[2] = biological target: T1, human PD1 on cells (Jurkat cells …); test: cell-based or functional assay; remark: listed apart in the source
[3] = biological target: T1, human PD1 on cells (Jurkat cells …); test: cell-based or functional assay; remark: listed apart in the source
[4] = biological target: T2, human TfR on cells (Jurkat cells; activated human T cells) (human, UniProt P02786 1-760); test: flow cytometry, Jurkat cells (WT, PD-1 low, PD-1 high), 2 h on ice, detection with biotinylated Cy5 (Median APC)
T2 construct: also called Transferrin receptor; CD71

[5] = biological target: T1, human PD1 on cells (Jurkat cells …); test: cell-based or functional assay; remark: listed apart in the source
[6] = biological target: T1, human PD1 on cells (Jurkat cells …); test: cell-based or functional assay; remark: listed apart in the source

T1 sequence (Q15116 25-288 limits assumed): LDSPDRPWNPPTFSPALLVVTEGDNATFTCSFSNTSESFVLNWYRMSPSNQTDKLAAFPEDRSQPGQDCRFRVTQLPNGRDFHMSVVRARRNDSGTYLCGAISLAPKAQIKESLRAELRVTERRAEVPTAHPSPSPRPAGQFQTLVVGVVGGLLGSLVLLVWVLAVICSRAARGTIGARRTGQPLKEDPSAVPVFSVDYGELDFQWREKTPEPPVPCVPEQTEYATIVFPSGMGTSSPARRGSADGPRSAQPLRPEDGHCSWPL
T2 sequence (P02786 whole entry): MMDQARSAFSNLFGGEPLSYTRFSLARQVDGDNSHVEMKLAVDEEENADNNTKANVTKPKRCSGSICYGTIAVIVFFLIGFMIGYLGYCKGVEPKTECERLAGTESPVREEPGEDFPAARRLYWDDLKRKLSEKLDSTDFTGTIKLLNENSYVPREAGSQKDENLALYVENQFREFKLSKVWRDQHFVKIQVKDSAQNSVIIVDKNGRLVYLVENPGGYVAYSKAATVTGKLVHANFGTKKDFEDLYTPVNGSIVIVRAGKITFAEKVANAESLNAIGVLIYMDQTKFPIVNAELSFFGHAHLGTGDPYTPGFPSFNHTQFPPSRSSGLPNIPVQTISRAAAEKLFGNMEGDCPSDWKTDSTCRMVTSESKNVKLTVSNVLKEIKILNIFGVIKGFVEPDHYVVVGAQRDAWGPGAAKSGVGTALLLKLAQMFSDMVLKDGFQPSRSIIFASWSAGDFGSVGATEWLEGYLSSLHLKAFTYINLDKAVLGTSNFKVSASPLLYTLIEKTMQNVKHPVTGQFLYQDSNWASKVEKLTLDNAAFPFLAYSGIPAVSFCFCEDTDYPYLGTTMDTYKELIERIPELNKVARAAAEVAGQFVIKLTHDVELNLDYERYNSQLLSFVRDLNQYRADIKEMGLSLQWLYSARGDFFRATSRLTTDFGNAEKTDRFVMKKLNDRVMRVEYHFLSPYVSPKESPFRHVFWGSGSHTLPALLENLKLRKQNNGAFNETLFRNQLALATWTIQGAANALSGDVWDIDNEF

Binder	Fold activity vs. control (EC50 of Granzyme B, mMLR), control PD1-0103-0312 [1] [fold vs PD1-0103-0312]	EC50 (pM) of Granzyme B production, mMLR [2] [pM]	Fold activity vs. control (EC50 of Granzyme B, mMLR), control 8158 [3] [fold vs 8158]	binding result [4]	Fold activity vs. control (EC50 of Granzyme B, mMLR), control 8159 [3] [fold vs 8159]	Fold activity vs. control (EC50 of Granzyme B, mMLR), control 8019 [5] [fold vs 8019]	Fold activity vs. control (EC50 of Granzyme B, mMLR), control PD1-0103-312 [6] [fold vs PD1-0103-312]
B1	7.83	25.8	4.44	–	–	–	–
B2	–	–	–	binds	–	–	–
B3	6.6	12	–	–	16.3	–	–
B4	–	121	–	–	–	1510	1.92
B5	–	139	–	–	–	4720	5.97
